# Numbering of substitutions follows the chain as printed.
# T1: CD73 (as used in the affinity measurements) (UniProt P21589 27-549, limits assumed)
# T1 construct: also called CD73 antigen; 5'-nucleotidase
# T1 sequence (looked up): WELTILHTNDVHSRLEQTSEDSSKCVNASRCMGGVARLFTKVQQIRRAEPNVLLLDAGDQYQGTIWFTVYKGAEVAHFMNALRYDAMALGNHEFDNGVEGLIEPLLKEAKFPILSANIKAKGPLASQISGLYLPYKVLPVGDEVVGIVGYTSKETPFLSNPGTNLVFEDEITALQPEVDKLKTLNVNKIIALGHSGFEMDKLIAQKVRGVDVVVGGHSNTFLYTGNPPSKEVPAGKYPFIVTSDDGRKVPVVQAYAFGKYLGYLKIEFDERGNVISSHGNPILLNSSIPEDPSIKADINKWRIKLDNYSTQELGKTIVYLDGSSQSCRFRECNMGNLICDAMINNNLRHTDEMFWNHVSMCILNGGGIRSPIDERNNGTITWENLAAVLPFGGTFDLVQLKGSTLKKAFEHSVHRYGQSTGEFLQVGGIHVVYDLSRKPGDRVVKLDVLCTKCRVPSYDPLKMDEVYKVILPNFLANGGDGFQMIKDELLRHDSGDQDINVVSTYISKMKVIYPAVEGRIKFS
# B1: CPX-004 (humanized 1E9 antibody, BAP094-hum05) (antibody, human IgG1, V domains shown)
# VH: EVQLVQSGAEVKKPGATVKISCKVSGYTFTSYWITWIRQPPGKGLEWIGDIYPGSGNTNYNEKFKTRVTISADKSISTAYLQWSSLKASDTAMYYCAKEGGLTTEDYALDYWGQGTLVTVSS
# VL: DVVMTQSPLSLPVTLGQPASISCRASKNVSTSGYSYMHWYQQKPGQAPRLLIYLASNLESGIPPRFSGSGYGTDFTLTINNIESEDAAYYFCQHSRELPFTFGQGTKVEIK
# B2: CPX-003 (humanized 1E9 antibody, BAP094-hum03) (antibody, human IgG1, V domains shown)
# VH: QVQLVQSGAEVKKPGASVKVSCKASGYTFTSYWITWVRQARGQRLEWIGDIYPGSGNTNYNEKFKTRVTITADKSTSTAYMELSSLRSEDTAVYYCAKEGGLTTEDYALDYWGQGTLVTVSS
# VL: EIVLTQSPDFQSVTPKEKVTITCRASKNVSTSGYSYMHWYQQKPGKAPKLLIYLASNLESGIPPRFSGSGYGTDFTLTINNIESEDAAYYFCQHSRELPFTFGQGTKVEI
# B3: CPX-005 (humanized 1E9 antibody, BAP094-hum06) (antibody, human IgG1, V domains shown)
# VH: B2 VH with K12E, R41P, R44G, I48M
# VL: AIQLTQSPSSLSASVGDRVTITCRASKNVSTSGYSYMHWYQQKPGQAPRLLIYLASNLESGVPSRFSGSGSGTDFTFTISSLEAEDAATYYCQHSRELPFTFGQGTKVEIK
# B4: CPX-006 (humanized 1E9 antibody; BAP094-hum06-HC with BAP094-hum07-LC) (antibody, V domains shown)
# VH: B2 VH with K12E, R41P, R44G, I48M
# VL: EIVLTQSPATLSLSPGERATLSCRASKNVSTSGYSYMHWYQQKPGQAPRLLIYLASNLESGIPPRFSGSGYGTDFTLTINNIESEDAAYYFCQHSRELPFTFGQGTKVEIK
# notes: also called anti-CD73 (CPX-006)
# B5: CPX-007 (humanized 1E9 antibody; BAP094-hum03-HC with BAP094-hum07-LC) (antibody, human IgG1, V domains shown)
# VH: B2 VH
# VL: B4 VL
# B6: CPX-002 (chimeric 1E9 antibody, clone BAP094-01) (antibody, human IgG1, V domains shown)
# VH: QVQLQQPGAELVKPGASVKMSCKASGYTFTSYWITWVKQRPGQGLEWIGDIYPGSGNTNYNEKFKTKATLTVDTSSSTAYMQLSSLTSEDSAVYYCAKEGGLTTEDYALDYWGQGTLVTVSS
# VL: DIVLTQSPASLAVSLGQRATISCRASKNVSTSGYSYMHWYQQKPGQPPKLLIYLASNLESGVPTRFSGSGSGTDFTLNIHPVEEEDAATYYCQHSRELPFTFGSGTKLEIK
# notes: also called chimeric antibody
# Biological target: T1, CD73 (as used in the affinity …)
# Test: affinity measurement, method not stated
row,Kd [nM],Binder
1,17.8,B1
2,19.5,B2
3,6.9,B3
4,7.1,B4
5,15.9,B5
6,9.4,B6

# From patent publication US20210253727A1 (CORVUS PHARMACEUTICALS, published 2021)
